The target in assay [1] is T1, MICA*008 on MEL-JUSO cells (human, UniProt Q29983 24-317).
T1 chain: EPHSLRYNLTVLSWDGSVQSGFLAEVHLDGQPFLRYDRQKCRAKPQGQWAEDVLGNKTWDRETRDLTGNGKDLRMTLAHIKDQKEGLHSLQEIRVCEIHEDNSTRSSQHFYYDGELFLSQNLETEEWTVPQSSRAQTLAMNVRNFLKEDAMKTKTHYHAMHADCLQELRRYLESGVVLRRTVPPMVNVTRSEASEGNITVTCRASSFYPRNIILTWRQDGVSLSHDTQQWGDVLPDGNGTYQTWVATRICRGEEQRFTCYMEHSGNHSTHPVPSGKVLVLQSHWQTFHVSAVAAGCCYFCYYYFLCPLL
The experiment in a line: cell-based or functional assay.

The target of assay [2] is MICA*004 on HCC1534 cells (human, UniProt Q29983 24-383). Briefly: cell-based or functional assay.
Assay [3] addresses T2, MICA.008.a3.T204-S297.H248N.mIgG2a.Glyco15 (human; mouse, UniProt Q29983 204-297, engineered N-linked glycosylation site H248N).
T2 construct: not shown: murine IgG2a Fc
T2 chain: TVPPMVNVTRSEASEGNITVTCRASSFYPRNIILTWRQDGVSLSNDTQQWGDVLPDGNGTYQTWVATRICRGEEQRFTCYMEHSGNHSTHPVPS
The experiment in a line: ELISA, coated variant.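 Note: ELISA with plates coated at 2 ug/ml with MICA*008 alpha 3 glycosylation variants as murine IgG2a Fc fusions, antibody binding detected by HRP anti-human IgG Fc and TMB absorbance.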

Assay [4] deals with T3, MICA.008.a3.T204-S297.E215N.mIgG2a.Glyco12 (human; mouse, UniProt Q29983 204-297, engineered N-linked glycosylation site E215N).
T3 construct: not shown: murine IgG2a Fc
T3 chain: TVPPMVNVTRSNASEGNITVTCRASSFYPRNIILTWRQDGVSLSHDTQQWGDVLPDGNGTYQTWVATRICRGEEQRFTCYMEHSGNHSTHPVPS
Briefly: ELISA, coated variant.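 Note: ELISA with plates coated at 2 ug/ml with MICA*008 alpha 3 glycosylation variants as murine IgG2a Fc fusions, antibody binding detected by HRP anti-human IgG Fc and TMB absorbance.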

For assay [5], the target named is T4, MICA.008.a3.R202-S297.R202N mIgG2a.Glyco11 (human; mouse, UniProt Q29983 203-297, engineered N-linked glycosylation site R202N).
T4 construct: not shown: murine IgG2a Fc
T4 chain: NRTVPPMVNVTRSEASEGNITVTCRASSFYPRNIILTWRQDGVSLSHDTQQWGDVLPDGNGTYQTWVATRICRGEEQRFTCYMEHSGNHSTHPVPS
The experiment in a line: ELISA, coated variant.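 Note: ELISA with plates coated at 2 ug/ml with MICA*008 alpha 3 glycosylation variants as murine IgG2a Fc fusions, antibody binding detected by HRP anti-human IgG Fc and TMB absorbance.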

Assay [6] concerns the target T5, MICA.008.a3.T204-S297.I236T.mIgG2a.Glyco13 (human; mouse, UniProt Q29983 204-297, engineered N-linked glycosylation site created by I236T).
T5 construct: not shown: murine IgG2a Fc
T5 chain: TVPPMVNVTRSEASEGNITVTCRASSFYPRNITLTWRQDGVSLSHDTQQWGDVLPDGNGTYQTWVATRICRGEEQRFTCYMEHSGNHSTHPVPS
Briefly: ELISA, coated variant.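 Note: ELISA with plates coated at 2 ug/ml with MICA*008 alpha 3 glycosylation variants as murine IgG2a Fc fusions, antibody binding detected by HRP anti-human IgG Fc and TMB absorbance.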

Assay [7] has as its target T6, MICA.008.a3.T204-S297.C-terminal insert of N298.G299.S300.mIgG2a.Glyco17 (human; mouse, UniProt Q29983 204-297, engineered N-linked glycosylation site at inserted N298).
T6 construct: not shown: murine IgG2a Fc
T6 chain: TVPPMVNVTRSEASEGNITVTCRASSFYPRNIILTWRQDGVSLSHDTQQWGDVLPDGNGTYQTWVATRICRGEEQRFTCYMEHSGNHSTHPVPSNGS
Briefly: ELISA, coated variant.

In assay [8] the target is T7, MICA004.His (human MICA*004 alpha 3 domain, His tagged) (human).
T7 construct: also called huMICA*004 alpha 3-his
T7 chain: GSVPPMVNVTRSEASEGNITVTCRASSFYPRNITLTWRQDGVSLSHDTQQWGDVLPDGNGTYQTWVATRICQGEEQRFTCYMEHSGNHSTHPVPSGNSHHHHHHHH
The experiment in a line: SPR, antibody captured.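 Note: SPR with antibody held by surface-bound anti-Fc while His-tagged alpha three domains flow over, Kd derived by fitting a one-to-one binding model to sensograms.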

For assay [9], the target named is T8, MICB005.His (human MICB*005 alpha 3 domain, His tagged) (human).
T8 construct: also called huMICB*005 alpha 3-his
T8 chain: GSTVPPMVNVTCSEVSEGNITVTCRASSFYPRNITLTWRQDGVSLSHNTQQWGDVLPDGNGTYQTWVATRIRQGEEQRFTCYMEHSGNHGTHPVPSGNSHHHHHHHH
The experiment in a line: SPR, antibody captured.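 Note: SPR with antibody held by surface-bound anti-Fc while His-tagged alpha three domains flow over, Kd derived by fitting a one-to-one binding model to sensograms.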

In assay [10] the target is T9, MICA002.His (human MICA*002 alpha 3 domain, His tagged) (human).
T9 construct: also called huMICA*002 alpha 3-his
T9 chain: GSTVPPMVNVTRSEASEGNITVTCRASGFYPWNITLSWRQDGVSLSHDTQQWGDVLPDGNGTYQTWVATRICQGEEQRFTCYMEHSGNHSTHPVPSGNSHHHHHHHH
The experiment in a line: SPR, antibody captured.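 Note: SPR with antibody held by surface-bound anti-Fc while His-tagged alpha three domains flow over, Kd derived by fitting a one-to-one binding model to sensograms.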

The target of assay [11] is T10, MICA008.His (human MICA*008 alpha 3 domain, His tagged) (human).
T10 construct: Also used for FPOP (expressed in CHO); also called huMICA*008 alpha 3-his; MICA*008 a3
T10 chain: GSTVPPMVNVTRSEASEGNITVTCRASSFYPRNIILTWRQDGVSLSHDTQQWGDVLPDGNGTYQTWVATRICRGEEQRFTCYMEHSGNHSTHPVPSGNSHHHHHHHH
Briefly: SPR, antibody captured.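 Note: SPR with antibody held by surface-bound anti-Fc while His-tagged alpha three domains flow over, Kd derived by fitting a one-to-one binding model to sensograms.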

B1: 6F8.7 (antibody, V domains shown)
VH: DVQLQGSGPGLVKPSQSLSLTCSVTGYSITNDYYWNWIRQFPGNKLEWMGFISFGGSNNYNPSLKNRISITRDTSKNQFFLKLSSVTTEDTATYYCARYDGRGAWFAYWAQGTLVTVSA
VL: DIQMTQSPASLSASVGETVTITCRASGNIHNYLAWYQQKQGKSPQLLVYDAITLADGVPSRFSGSGSGTQYSLKINSLQPEDFGNYYCQHFWSFPLTFGAGTKVEIK
notes: Mouse hybridoma antibody; constant regions differ by assay
Take B1: the “% max inhibition of shedding” value in [1] was 47.5%; in assay [2], 70%. The “EC50 of shedding inhibition” value was determined as 0.163 µg/mL in [1] and 0.251 µg/mL in assay [2]. The binding result in assay [3], in assay [4], in [5], in assay [6] and in assay [7] was “binds” in each case. Further, the Kd was determined as 6.2 nM in [8], 14.5 nM in [9], 2.4 nM in assay [10] and 8.4 nM in assay [11].

B2: 7D4.6 (antibody, V domains shown)
VH: DVQLQESGPGLVKPSQSLSLTCTVTGYSITSDYAWNWIRQFPRNKLEWMGYINYSGTTNYNPSLKSRISITRDTSKNQFFLQLISVTTEDTATYYCSYYRYDGAWFPYWGQGTLVTVSA
VL: DIQMTQSPASLSASVGETVTITCRASGNIHNYLAWYQQKQGKSPQLLVYNAIMLADGVPSRFSASGSGTQYSLKINSLQPEDFGSYYCQHFWSFPLTFGAGTKVEIK
notes: as for B1
As for B2, the results for the “% max inhibition of shedding” value in assay [1] and in assay [2] were 26% and 63%, respectively. In [2], the “EC50 of shedding inhibition” value came out at 0.185 µg/mL. For the same molecule, the binding result in assay [3], in assay [4], in [5], in assay [6] and in assay [7] was “binds” each time. Further, the Kd in assay [8] was determined as 8.9 nM; in assay [9], 20 nM; in [10], 3.5 nM; in assay [11], 10 nM.

B3: 3E11 (antibody, V domains shown)
VH: EIQLQQSGPELVKPGASVKVSCTASGYAFTKYNIYWVKQSHGKSLEWIGYIDPYTGGTISNQKFTGRATLTVDKSSSTAYLHLNSLTSEDSAVYYCARPGSYWYFGVWGAGTTVTVSS
VL: DILMTQTPLSLPVSLGDQASISCRSSQSIVYTNGNTNLEWYLQKPGQSPKLLIYKVSNRFSGVPDRFSGSGSGTDFTLKISRVEAEDLGVYYCFQASYVPFTFGSGTKVEIK
notes: as for B1
As for B3, the “% max inhibition of shedding” value is 70% in [1] and 55% in [2]. In addition, the “EC50 of shedding inhibition” value was 0.265 µg/mL in assay [1] and 0.309 µg/mL in assay [2]. Further, the binding result in assay [3], in assay [4], in [5], in [6] and in assay [7] was “binds” throughout. The dissociation constant Kd in [8] stood at 5 nM; in assay [9], 6.8 nM; in assay [10], 7.7 nM; in assay [11], 2.5 nM.

The record behind these values is US20200055939A1 (Genentech, published 2020).
